Test results reported in IntAct's records for PubMed 24270572.

B1: Endoribonuclease ZC3H12A (Homo sapiens), Q5D1E8 (parent)
chain: MSGPCGEKPVLEASPTMSLWEFEDSHSRQGTPRPGQELAAEEASALELQMKVDFFRKLGYSSTEIHSVLQKLGVQADTNTVLGELVKHGTATERERQTSPDPCPQLPLVPRGGGTPKAPNLEPPLPEEEKEGSDLRPVVIDGSNVAMSHGNKEVFSCRGILLAVNWFLERGHTDITVFVPSWRKEQPRPDVPITDQHILRELEKKKILVFTPSRRVGGKRVVCYDDRFIVKLAYESDGIVVSNDTYRDLQGERQEWKRFIEERLLMYSFVNDKFMPPDDPLGRHGPSLDNFLRKKPLTLEHRKQPCPYGRKCTYGIKCRFFHPERPSCPQRSVADELRANALLSPPRAPSKDKNGRRPSPSSQSSSLLTESEQCSLDGKKLGAQASPGSRQEGLTQTYAPSGRSLAPSGGSGSSFGPTDWLPQTLDSLPYVSQDCLDSGIGSLESQMSELWGVRGGGPGEPGPPRAPYTGYSPYGSELPATAAFSAFGRAMGAGHFSVPADYPPAPPAFPPREYWSEPYPLPPPTSVLQEPPVQSPGAGRSPWGRAGSLAKEQASVYTKLCGVFPPHLVEAVMGRFPQLLDPQQLAAEILSYKSQHPSE

Variants of: B1
Conditions: with ubp10_human USP10, Q14694
Chain of ubp10_human USP10, Q14694 (Q14694 whole entry): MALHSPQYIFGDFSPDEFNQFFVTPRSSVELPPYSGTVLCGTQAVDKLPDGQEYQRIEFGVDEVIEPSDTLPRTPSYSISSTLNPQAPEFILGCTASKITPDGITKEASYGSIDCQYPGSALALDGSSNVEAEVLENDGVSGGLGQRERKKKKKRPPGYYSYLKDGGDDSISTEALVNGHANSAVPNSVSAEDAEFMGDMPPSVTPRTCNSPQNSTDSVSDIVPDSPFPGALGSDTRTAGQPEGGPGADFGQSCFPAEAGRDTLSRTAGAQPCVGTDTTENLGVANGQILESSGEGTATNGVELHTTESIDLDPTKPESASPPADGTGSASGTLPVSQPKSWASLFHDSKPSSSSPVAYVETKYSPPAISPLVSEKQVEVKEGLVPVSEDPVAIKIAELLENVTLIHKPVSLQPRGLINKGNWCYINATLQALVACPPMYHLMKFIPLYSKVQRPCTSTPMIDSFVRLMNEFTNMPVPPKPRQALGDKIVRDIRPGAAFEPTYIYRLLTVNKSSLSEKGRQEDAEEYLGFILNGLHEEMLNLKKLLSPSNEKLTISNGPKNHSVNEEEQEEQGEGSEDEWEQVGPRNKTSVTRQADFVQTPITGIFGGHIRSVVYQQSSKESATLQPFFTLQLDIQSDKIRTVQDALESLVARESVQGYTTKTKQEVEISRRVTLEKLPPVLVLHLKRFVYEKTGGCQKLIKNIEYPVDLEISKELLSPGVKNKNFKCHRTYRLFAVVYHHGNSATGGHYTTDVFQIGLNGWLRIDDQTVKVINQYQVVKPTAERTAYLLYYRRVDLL

| Variant | effect of a mutation on the interaction |
| --- | --- |
| MSGPCGEKPVLEASPTMSLWEFEDSHSRQGTPRPGQELAAEEASALELQMKVDFFRKLGYSSTEIHSVLQKLGVQADTNTVLGELVKHGTATERERQTSPDPCPQLPLVPRGGGTPKAPNLEPPLPEEEKEGSDLRPVVINGSNVAMSHGNKEVFSCRGILLAVNWFLERGHTDITVFVPSWRKEQPRPDVPITDQHILRELEKKKILVFTPSRRVGGKRVVCYDDRFIVKLAYESDGIVVSNDTYRDLQGERQEWKRFIEERLLMYSFVNDKFMPPDDPLGRHGPSLDNFLRKKPLTLEHRKQPCPYGRKCTYGIKCRFFHPERPSCPQRSVADELRANALLSPPRAPSKDKNGRRPSPSSQSSSLLTESEQCSLDGKKLGAQASPGSRQEGLTQTYAPSGRSLAPSGGSGSSFGPTDWLPQTLDSLPYVSQDCLDSGIGSLESQMSELWGVRGGGPGEPGPPRAPYTGYSPYGSELPATAAFSAFGRAMGAGHFSVPADYPPAPPAFPPREYWSEPYPLPPPTSVLQEPPVQSPGAGRSPWGRAGSLAKEQASVYTKLCGVFPPHLVEAVMGRFPQLLDPQQLAAEILSYKSQHPSE [D141N] | disrupting interaction |

Variants of: B1
Conditions: with ubp10_human USP10, Q14694
Remark: another data set of the same source

| Variant | effect of a mutation on the interaction |
| --- | --- |
| MSGPCGEKPVLEASPTMSLWEFEDSHSRQGTPRPGQELAAEEASALELQMKVDFFRKLGYSSTEIHSVLQKLGVQADTNTVLGELVKHGTATERERQTSPDPCPQLPLVPRGGGTPKAPNLEPPLPEEEKEGSDLRPVVIDGSNVAMSHGNKEVFSCRGILLAVNWFLERGHTDITVFVPSWRKEQPRPDVPITDQHILRELEKKKILVFTPSRRVGGKRVVCYDDRFIVKLAYESDGIVVSNDTYRDLQGERQEWKRFIEERLLMYSFVNDKFMPPDDPLGRHGPSLDNFLRKKPLTLEHRKQPRPYGRKCTYGIKCRFFHPERPSCPQRSVADELRANALLSPPRAPSKDKNGRRPSPSSQSSSLLTESEQCSLDGKKLGAQASPGSRQEGLTQTYAPSGRSLAPSGGSGSSFGPTDWLPQTLDSLPYVSQDCLDSGIGSLESQMSELWGVRGGGPGEPGPPRAPYTGYSPYGSELPATAAFSAFGRAMGAGHFSVPADYPPAPPAFPPREYWSEPYPLPPPTSVLQEPPVQSPGAGRSPWGRAGSLAKEQASVYTKLCGVFPPHLVEAVMGRFPQLLDPQQLAAEILSYKSQHPSE [C306R] | disrupting interaction |
